Measurements reported in patent publication US20260209384A1 (Stanford University, published 2026).

Molecular target: T1, recombinant human GPC2 (R&D Systems) (human, UniProt Q8N158 24-554, limits assumed, labelled with Dylight488 or Dylight650 in the flow cytometry assays; unlabelled in the ELISA)
T1 construct: extracellular domain; also called hGPC2; human Glypican-2
T1 sequence (looked up): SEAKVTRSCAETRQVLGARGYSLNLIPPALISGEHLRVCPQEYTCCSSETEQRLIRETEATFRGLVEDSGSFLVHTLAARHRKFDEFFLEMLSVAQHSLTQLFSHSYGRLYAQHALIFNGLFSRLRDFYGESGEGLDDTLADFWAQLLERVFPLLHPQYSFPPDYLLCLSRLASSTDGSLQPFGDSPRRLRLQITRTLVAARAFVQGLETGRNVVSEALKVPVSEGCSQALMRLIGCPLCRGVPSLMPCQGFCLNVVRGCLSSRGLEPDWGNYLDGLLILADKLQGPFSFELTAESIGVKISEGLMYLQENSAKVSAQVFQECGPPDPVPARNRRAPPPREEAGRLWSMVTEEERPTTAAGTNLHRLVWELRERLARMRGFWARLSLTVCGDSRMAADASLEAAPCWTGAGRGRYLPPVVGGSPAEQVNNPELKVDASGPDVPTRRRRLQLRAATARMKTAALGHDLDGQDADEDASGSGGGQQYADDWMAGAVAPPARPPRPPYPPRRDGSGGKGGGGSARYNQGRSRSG
Experiment: panning of a human naive Fab phage library against recombinant human GPC2
Source text: A naïve human Fab phage display library constructed from peripheral blood B cells of 50 healthy donors, was used for selection of Fabs against purified recombinant GPC2 ectodomain (R&D Systems) as previously described. The isolated Fabs were expressed, purified and tested for binding to the GPC2 ectodomain through ELISA.

B1: GPC2.27 (Fab from a human naive Fab phage library) (Fab, V domains shown)
VH: EVQLVESGPGLVKPSETLSLTCAVSGYSISSGYYWGWIRQPPGKGLEWIGSIYHSGSTYYNPSLKSRVTISVDTSKNQFSLKLSSVTAADTAVYYCASLPSRGGFDYWGQGTLVTVSS
VL: EIVMTQSPATLSASVGDRVTIACRASQTISRYLNWYQQKPGKAPKLLIYAASSLQSGVSSRFSGSGSGTEFTLTISSLQPEDFATYFCQQTYSPPITFGQGTRLEIKR
notes: Human Fab selected by phage display
B1: binds.
